Laboratory results from patent US20100022401A1, “Avidin-like proteins from symbiotic bacteria” (LICENTIA OY, priority 2004, published 2010).
Where two headings read alike, the source gives them in different places. Marks after values point to notes of the source that are not given here.

What was measured:
[1] = Fluorescent biotin conjugate dissociation assay; assay type: binding; settings: for Fluorescent biotin kdiss: ArcDia BF560-biotin; for Fluorescent biotin kdiss / Release 1 h of fluorescent biotin conjugate: 50° C.; for Release 1 h of fluorescent biotin conjugate: one hour, presence of excess free biotin; for Fluorescent biotin conjugate dissociation (in words): fluorescent biotin conjugate as ligand
Method: (§1) FIG. 2 Biotin dissociation analysis. (A) The [3H]biotin dissociation rate constant was measured at different temperatures. The values for streptavidin are from Klumb et al. (Klumb et al., 1998). The scale of the Y axis is logarithmic. (B) Release of fluorescent biotin conjugate from avidins was studied as a function of time in the presence of excess D-biotin at 50° C.
(§2) Ligand binding properties were studied both by [3H]biotin assay and fluorescent biotin conjugate assay. The dissociation rate constant of [3H]biotin (Amersham) from the bradavidins and avidin was measured at various temperatures as described in detail previously (Klumb et al., 1998). According to the results, (Table I, FIG. 2) the faster dissociation rate measured from bradavidin indicates weaker affinity toward the radiobiotin than those of avidin and streptavidin. The dissociation rate of a fluorescent biotin conjugate (ArcDia BF560™-biotin) was measured as previously described (Hytönen et al., 2004a) at 50° C.
(§3) The apparent molecular mass is indicated and followed by the theoretical mass in brackets. Transition temperature (Tr) indicates the temperature in which half of the protein is tetrameric and half monomeric in the absence (first value) and presence (second value) of biotin. In addition to the measured dissociation rate constant (kdiss), the release percentage of the fluorescent biotin conjugate in one hour in the presence of excess free biotin is indicated. Calculated isoelectrical point (pI) and the number of cysteine residues per monomer are also indicated.

[2] = SDS-PAGE based thermal stability (heat treatment); assay type: physicochemical
Description: The thermal stability characteristics of the proteins were studied by a SDS-PAGE based method as previously described in detail by (Bayer et al., 1996).
as §3

[3] = [3H]biotin dissociation rate assay; assay type: binding; settings: radio-biotin, different temperatures
Method: as §1, §2

[4] = values from Bayer et al., 1996, cited from earlier work

Row | Molecule | Fluorescent biotin kdiss [1] [s⁻¹] | Release 1 h of fluorescent biotin conjugate [1] [%] | Heat treatment SDS-PAGE Tr (transition temperature, half tetrameric and half monomeric) ([2]; absence of biotin) | Heat treatment SDS-PAGE Tr (transition temperature, half tetrameric and half monomeric) ([2]; presence of biotin) [°C] | [3H]biotin dissociation rate (in words) [3] | Fluorescent biotin conjugate dissociation (in words) [1] | Heat treatment SDS-PAGE Tr (transition temperature) ([4]; absence of biotin) | Heat treatment SDS-PAGE Tr (transition temperature) ([4]; presence of biotin)
1 | Bradavidin-core: C-terminally truncated core form (118 amino acid residues, SEQ ID NO:2) of biotin-binding protein from Bradyrhizobium japonicum, produced in E. coli (protein, listed as Bradyrhizobium japonicum) QSVNWTWTNQYGSTLAITSFNSNTGAITGTYTNNAANSCDEGKPQGVTGWLAYGNTGTAISFSVNFLGCGSTTVWTGQLNNATGFQGLWYLSLAEAVAWNGISAGADTFTFSSGDKAL | 1.2e-05 | 4.4 | 70^ ° C. | 85 |  |  |  | 
2 | Bradavidin: full length wild-type (138 amino acid residues, SEQ ID NO:1) avidin-like biotin-binding protein from Bradyrhizobium japonicum (protein, listed as Bradyrhizobium japonicum) QSVNWTWTNQYGSTLAITSFNSNTGAITGTYTNNAANSCDEGKPQGVTGWLAYGNTGTAISFSVNFLGCGSTTVWTGQLNNATGFQGLWYLSLAEAVAWNGISAGADTFTFSSGDKALLTKSGVDLKAGSEKLSNTKK | 1.5e-05 | 4.7 | 65^ ° C. | 85 | fastest dissociation rate | very slow and small release |  | 
3 | Avidin: chicken avidin (SEQ ID NO:6), glycosylated biotin-binding protein (protein) NSARSTPGCPPAAEMVHATSPLLLLLLLSLALVAPGLSARKCSLTGKWTNDLGSNMTIGAVNSRGEFTGTYITAVTATSNEIKESPLHGTQNTINKRTQPTFGFTVNWKFSESTTVFTGQCFIDRNGKEVLKTMWLLRS | 0.00027 | 71.5 |  |  | clearly the slowest dissociation | clearly the fastest in dissociation | 58^a ° C. | 100^a ° C.
